# Measured values published in patent publication CN106188281A (INST PASTEUR OF SHANGHAI CHINESE ACAD OF SCIENCES, dated 2016).
# B1: 8E1单抗 (抗诺如病毒GII.4型鼠源单克隆抗体8E1) (antibody, V domains shown)
# VH: EIQLQQSGPELMKPGASVKISCKASGYSFTDYYMHWVKQSHGKSLEWIGYIDPFNGDTGYNQKFKVRATLTVDESSTTAYMHLSSLTSDDSAVYYCARDDWGSPFSYWGQGTLVTVSA
# VL: DIQMTQSPSSLSASLGESVSLTCRASHDIGSNLDWLQQEPDGTIKRLIYATSTLDSGVPKRFSGSRSGSDYSLTISSLESEDFVEYYCLQYASSPRTFGGGTKLEIKR
# notes: Mouse IgG1, kappa; also called m8E1
# Assays:
# [1] = target: T1, 诺如病毒GII.4病毒样颗粒 (GII.4 VP1 virus-like particle) (诺如病毒GII.4 (norovirus GII.4), UniProt P54635 3-539); assay: blocking ELISA (surrogate neutralisation): mAb titrated against 0.5 ug/ml GII.4 VLP, binding of VLP to coated PGM read
# T1 construct: also called GII.4VLP; 天然结构的GII.4病毒样颗粒
# T1 chain: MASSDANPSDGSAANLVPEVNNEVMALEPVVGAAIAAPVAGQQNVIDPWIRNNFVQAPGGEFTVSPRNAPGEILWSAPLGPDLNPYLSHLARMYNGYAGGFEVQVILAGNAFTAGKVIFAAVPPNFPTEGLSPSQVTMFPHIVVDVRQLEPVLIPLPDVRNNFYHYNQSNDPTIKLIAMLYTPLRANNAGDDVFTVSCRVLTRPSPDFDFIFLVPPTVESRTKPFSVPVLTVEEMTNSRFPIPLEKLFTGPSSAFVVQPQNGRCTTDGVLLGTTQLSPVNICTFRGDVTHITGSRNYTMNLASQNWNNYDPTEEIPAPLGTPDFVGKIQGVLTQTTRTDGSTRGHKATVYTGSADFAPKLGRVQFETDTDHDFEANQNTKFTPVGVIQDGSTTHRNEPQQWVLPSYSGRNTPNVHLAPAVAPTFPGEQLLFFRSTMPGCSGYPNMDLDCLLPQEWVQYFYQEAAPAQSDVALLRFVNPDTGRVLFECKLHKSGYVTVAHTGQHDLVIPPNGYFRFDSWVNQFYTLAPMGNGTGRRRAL
# [2] = target: T2, 诺如病毒GI.1病毒样颗粒 (GI.1 VP1 virus-like particle) (诺如病毒GI.1 (norovirus GI.1), UniProt Q83884 3-530); assay: ELISA, 100 ng GI.1 VLP coated per well
# T2 construct: VLP assembled from VP1
# T2 sequence: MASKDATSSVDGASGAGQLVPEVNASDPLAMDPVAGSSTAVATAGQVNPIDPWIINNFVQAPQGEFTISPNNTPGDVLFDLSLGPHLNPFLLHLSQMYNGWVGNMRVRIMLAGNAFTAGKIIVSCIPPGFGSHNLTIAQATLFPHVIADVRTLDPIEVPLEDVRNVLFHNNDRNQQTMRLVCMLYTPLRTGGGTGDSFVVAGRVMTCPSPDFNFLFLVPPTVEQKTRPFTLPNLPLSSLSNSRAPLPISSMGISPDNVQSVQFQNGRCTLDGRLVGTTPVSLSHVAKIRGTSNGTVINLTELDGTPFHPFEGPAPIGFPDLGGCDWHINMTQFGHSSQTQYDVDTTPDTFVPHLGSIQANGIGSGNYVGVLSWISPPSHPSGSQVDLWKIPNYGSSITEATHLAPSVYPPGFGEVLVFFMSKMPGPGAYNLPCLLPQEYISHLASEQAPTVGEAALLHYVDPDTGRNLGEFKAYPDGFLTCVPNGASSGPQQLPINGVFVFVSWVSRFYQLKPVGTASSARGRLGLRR
# [3] = target: T1, 诺如病毒GII.4病毒样颗粒 (GII.4 VP1 virus-like …); assay: blocking ELISA (surrogate neutralisation), VLP to PGM; reference D11
# [4] = target: T1, 诺如病毒GII.4病毒样颗粒 (GII.4 VP1 virus-like …); assay: blocking ELISA (surrogate neutralisation), VLP to PGM; reference G9
binder,measurement,setting,value
B1,EC50,[1],0.0436 µg/mL
same,binding result,[2],no binding (tested: 5ug/ml)
same,fold of neutralising (blocking) activity against D11,[3],> 2 fold
same,fold of neutralising (blocking) activity against G9,[4],~16 fold
